The subject of the data set is Bacillus subtilis DB104 (SP-AmyQ fusion secretion). The experiment in a line: AmyQ secretion efficiency, weighted average sort bin (1 = best secretion, 10 = worst) (bin number (weighted average, 1-10)); higher = lower secretion efficiency. The procedure, abridged:
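Secretion score gives the read-frequency-weighted average bin number, normalised to beads per bin, with low-abundance sequences left out. A B. subtilis DB104 library expressing mature AmyQ fused to designed signal peptides, integrated at amyE, was encapsulated with fluorescein-starch at about 0.3 cells per ~65 nL alginate bead. Beads were grown about 13 h at room temperature, stained with nile red, and the occupied ones were sorted by large-particle flow cytometry into 10 equally populated bins by green/red fluorescence ratio before the amplicons from each bin were Illumina-sequenced.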

MKKAAAVLLSLGLVFGFSYGAGHVYEAKTK had an AmyQ secretion efficiency of 5.94. Next, MKKAAAVLLSLGLVFIFVFAAVHVAEAKTK: 2.59; MKKAAAVLLSLGLVFKFSYGAGHVAEAKTK: 3.2; MKKAAAVLLSLGLVFKKRRRKKHVAEAKTK: 7.39. In the case of MKKAAAVLLSLGLVFVFVYGAGHVAEAKTK it was 2.4.

For MKKAAAVLLSLGLVFVGFSYGAGHVAEAKTK, the AmyQ secretion efficiency turned out to be 1.71. MKKAFILSAAAAVGLFTFDDDQQASAKEL returned an AmyQ secretion efficiency of 2.77. In the case of MKKAFILSAAAAVGLFTFEEDEDEASAKEL it was 4.76.

MKKAFILSAAAAVGLFTFGASAKEL yielded an AmyQ secretion efficiency of 5.43. For the sequence MKKAFILSAAAAVGLFTFGGVQQASAADD, the AmyQ secretion efficiency turned out to be 3.55. In the case of MKKAFILSAAAAVGLFTFGGVQQASCKEL it was 2.66; in that of MKKAFILSAAAAVGLFTFGGVQQASEKEL, 6.66; in that of MKKAFILSAAAAVGLFTFGGVQQASGKEL, 3.67. In the case of MKKAFILSAAAAVGLFTFGGVQQASMKEL, the AmyQ secretion efficiency came to 5.04. Next, MKKAFILSAAAAVGLFTFGGVQQASVKEL: 6.39; MKKAFILSAAAAVGLFTFGGVQQFSAKEL: 5.1; MKKAFILSAAAAVGLFTFGGVQQISAKEL: 3.06. Next, MKKAFILSAAAAVGLFTFGGVQQLSAKEL: 3.38.

Take MKKAFILSAAAAVGLFTFGGVQQMSAKEL: the AmyQ secretion efficiency was determined as 2.71. Next, MKKAFILSAAAAVGLFTFGGVQQSSAKEL: 4.21; MKKAFILSAAAAVGLFTFGGVQQVSAKEL: 3.11; MKKAFILSAAAAVGLFTFIAVSVASAKEL: 3.67. Turning to MKKAFILSAAAAVGLFTFKKKRRRASAKEL, the AmyQ secretion efficiency worked out at 7.21.

MKKAFILSAAAAVGLFTFKRRQQASAKEL returned an AmyQ secretion efficiency of 7.06. In the case of MKKAFILSAAAAVGLFTFLILSFTGGVQQASAKEL it was 3.78. In the case of MKKAFILSAAAAVGLFTFSIGGVQQASAKEL it was 3.67; in that of MKKAFILSAAAAVGLFTFTSVVGASAKEL, 4.32; in that of MKKAFLVFLMVVLVLMVFLTVKQQESVAQAKQL, 3.05. Next, MKKAFLVFLSVVLVTTVFLFVKQQESVAQAKQL: 2.31; MKKAFLVFLSVVLVTTVFLRKKRRKVAQAKQL: 6.27; MKKAFLVFLSVVLVTTVFLSKQQESVAQAKQL: 1.98. MKKAFLVFLSVVLVTTVFLTSSFLVKQQESVAQAKQL gave an AmyQ secretion efficiency of 4.08. MKKAFLVFLSVVLVTTVFLVKQQEAQAKQL displayed an AmyQ secretion efficiency of 2.1. Next, MKKAFLVFLSVVLVTTVFLVKQQESVAQAADD: 4.45; MKKAFLVFLSVVLVTTVFLVKQQESVAQGKQL: 3.58. The sequence MKKAFLVFLSVVLVTTVFLVKQQESVAQHKQL returned an AmyQ secretion efficiency of 4.12.

Take MKKAFLVFLSVVLVTTVFLVKQQESVAQKKQL: the AmyQ secretion efficiency came to 4.43. In turn, MKKAFLVFLSVVLVTTVFLVKQQESVAQNKQL yielded an AmyQ secretion efficiency of 2.89. On to MKKAFLVFLSVVLVTTVFLVKQQESVAQPKQL, for which the AmyQ secretion efficiency was 4.94. Next, MKKAFLVFLSVVLVTTVFLVKQQESVAQRKQL: 2.03.

Take MKKAFLVFLSVVLVTTVFLVKQQESVAQTKQL: the AmyQ secretion efficiency came out at 2.14. In turn, MKKAFLVFLSVVLVTTVFLVKQQESVAQVKQL registered an AmyQ secretion efficiency of 3.34.

In the case of MKKAFLVFLSVVLVTTVFLVKQQESVCQAKQL, the AmyQ secretion efficiency was found to be 4.58.

On to MKKAFLVFLSVVLVTTVFLVKQQESVDQAKQL, for which the AmyQ secretion efficiency came out at 5.67. In the case of MKKAFLVFLSVVLVTTVFLVKQQESVHQAKQL it was 6.34. In the case of MKKAFLVFLSVVLVTTVFLVKQQESVLQAKQL, the AmyQ secretion efficiency was 4.04. Next, MKKAFLVFLSVVLVTTVFLVKQQESVPQAKQL: 7.73; MKKAFLVFLSVVLVTTVFLVKQQESVSGAQAKQL: 4.03; MKKAFLVFLSVVLVTTVFLVVSFESVAQAKQL: 2.33. In the case of MKKAFLVFLSVVVKQQESVAQAKQL it was 7.51; in that of MKKAKKKKLSLGLVFGFSYGAGHVAEAKTK, 7.52; in that of MKKAKRKRLSVVLVTTVFLVKQQESVAQAKQL, 5.44.

In the case of MKKAKRKRRKAAVGLFTFGGVQQASAKEL, the AmyQ secretion efficiency was found to be 8.05. Next, MKKAKRVFLSVVLVTTVFLVKQQESVAQAKQL: 3.28. Next, MKKAKRVSALTPSTTLAITAKAKEL: 7.61. MKKALTLCPAIVGSLLFFTAPASAHVS returned an AmyQ secretion efficiency of 2.41. Consider MKKARRLSAAAAVGLFTFGGVQQASAKEL, for which the AmyQ secretion efficiency stood at 3.35. In the case of MKKARRRKAAAAVGLFTFGGVQQASAKEL it was 6.73; in that of MKKARRVLLSLGLVFGFSYGAGHVAEAKTK, 2.43; in that of MKKAWFLPLVCVLLISGWLAPAASASAQTT, 2.33. In the case of MKKCKRKKKKIALILSLSTNAFAKNT it was 6.9; in that of MKKCKRRKTTIALILSLSTNAFAKNT, 7.38. Next, MKKCLAVTLVFGSMSFPTLTNSGGFKE: 4.92; MKKCLLFLTTIALILISLSTNAFAKNT: 2.13. MKKCLLFLTTIALILKRRTNAFAKNT returned an AmyQ secretion efficiency of 7.37. Next, MKKCLLFLTTIALILRKRRKKAFAKNT: 7.29; MKKCLLFLTTIALILSGSTNAFAKNT: 1.7; MKKCLLFLTTIALILSLSTNAFAANE: 1.03.

Sequence MKKCLLFLTTIALILSLSTNAFAANR had an AmyQ secretion efficiency of 1.56. As to MKKCLLFLTTIALILSLSTNAFAEDE, the AmyQ secretion efficiency was 4.16.

Sequence MKKCLLFLTTIALILSLSTNAFYKNT registered an AmyQ secretion efficiency of 8.02. As to MKKCLLFLTTIALILSLSTNCFAKNT, the AmyQ secretion efficiency came to 1.59.

For the sequence MKKCLLFLTTIALILSLSTNGFAKNT, the AmyQ secretion efficiency was 6.12.

As to MKKCLLFLTTIALILSLSTTAFAKNT, the AmyQ secretion efficiency came out at 1.16. In the case of MKKCRKSIKRFLVSLIIGTFVISVPFMANAQSD, the AmyQ secretion efficiency is 1.76. Sequence MKKEGKQYSRLCLSLSPLVSTNEVFAATT came in with an AmyQ secretion efficiency of 7.68. In the case of MKKELLASLVLCLSLDDDDETNEVFAATT it was 5.98. Consider MKKELLASLVLCLSLKRLVSTNKVFAATT, for which the AmyQ secretion efficiency is 7.51. Turning to MKKELLASLVLCLSLKRRKRTNRVFAATT, the AmyQ secretion efficiency stood at 7.57. Consider MKKELLASLVLCLSLSPLVSTNEVFAAEE, for which the AmyQ secretion efficiency is 2.07.

For MKKELLASLVLCLSLSPLVSTNEVFAATT, the AmyQ secretion efficiency is 2.73.

Source of the values: the supplement of paper PMC9942255.
